# Source: PMC6391492, “Native mass spectrometry identifies an alternative DNA-binding pathway for BirA from Staphylococcus aureus”
# B1: HSm SabioO (both half-sites mutated) (dsDNA)
# DNA 1: TTACACAGACGATTATTAATTATAAAAAGCAGACACCG
# DNA 2: CGGTGTCTGCTTTTTATAATTAATAATCGTCTGTGTAA
# B2: EcbioO (dsDNA)
# DNA 1: TAATCGACTTGTAAACCAAATTGAAAAGATTTAGGTTTACAAGTCTACAC
# DNA 2: GTGTAGACTTGTAAACCTAAATCTTTTCAATTTGGTTTACAAGTCGATTA
# B3: HS2m SabioO (second half-site mutated) (dsDNA)
# DNA 1: TTAAATGTAAACTTATTAATTATAAAAAGCAGACACCG
# DNA 2: CGGTGTCTGCTTTTTATAATTAATAAGTTTACATTTAA
# B4: HS1m SabioO (first half-site mutated) (dsDNA)
# DNA 1: TTACACAGACGATTATTAATTATAAAAGTTTACATTCG
# DNA 2: CGAATGTAAACTTTTATAATTAATAATCGTCTGTGTAA
# B5: SabioY (full strands) (dsDNA)
# DNA 1: AACTTATTGTAAACTTTTCATTTCTTAAAGTTTACAATGGTGCT
# DNA 2: AGCACCATTGTAAACTTTAAGAAATGAAAAGTTTACAATAAGTT
# B6: SabioO (dsDNA)
# DNA 1: CCTTAAATGTAAACTTTTATAATTAATAAGTTTACATTTAAG
# DNA 2: CCTTAAATGTAAACTTATTAATTATAAAAGTTTACATTTAAGG
# What was measured:
# [1] = molecular target: S. aureus BirA (biotin retention protein A, biotin protein ligase), strain Mu50, wild type (S. aureus strain Mu50); assay: native MS; holo proteins (pre-incubated with 500 µM biotin, 1 mM ATP, 1 mM MgCl2 on ice, then buffer exchanged), no DNA, 10 µM protein in 200 mM ammonium acetate pH 6.85; dimer to monomers
# [2] = molecular target: S. aureus BirA (biotin retention protein A, biotin protein ligase), strain Mu50, wild type (S. aureus strain Mu50); assay: native MS; holo proteins, 10 µM, with 5 µM SabioO oligonucleotide with only one BirA half site, 200 mM ammonium acetate pH 6.9, 4 °C at least 1 hour
# SaBirA-F123G [3] = molecular target: T1, SaBirA-F123G (Staphylococcus aureus Mu50, UniProt A0A0H3JRH8 1-323, F123G); assay: native nESI-MS; apo; nESI-MS: 200 mM ammonium acetate pH 6.9, 10 uM protein, 5 uM DNA, 4 C >=1 h; EMSA: 50 mM Tris pH 8.0, 50 mM NaCl, 0.1 mM biotin, 1 mM ATP, 1 mM MgCl2, 10% glycerol, 10 nM DNA, room temperature 30 min; details: protein: recombinant; label: none; blunt
# SaBirA [4] = molecular target: T2, SaBirA (Staphylococcus aureus Mu50, UniProt A0A0H3JRH8 1-323); assay: as above; details: protein: recombinant; label: none; blunt
# EcBirA = EcBirA (Escherichia coli, UniProt P06709 1-321); assay: native nESI-MS; holo (biotinyl-5'-AMP); two subunits on DNA; nESI-MS: 200 mM ammonium acetate pH 6.9, 10 uM protein, 5 uM DNA, 4 C >=1 h; EMSA: 50 mM Tris pH 8.0, 50 mM NaCl, 0.1 mM biotin, 1 mM ATP, 1 mM MgCl2, 10% glycerol, 10 nM DNA, room temperature 30 min; details: protein: recombinant; chain copies: 2; label: none
# EcBirA-R119W = EcBirA-R119W (Escherichia coli, UniProt P06709 1-321, R119W); assay: native nESI-MS; holo (biotinyl-5'-AMP); two subunits on DNA; 10 uM protein; nESI-MS: 200 mM ammonium acetate pH 6.9, 10 uM protein, 5 uM DNA, 4 C >=1 h; EMSA: 50 mM Tris pH 8.0, 50 mM NaCl, 0.1 mM biotin, 1 mM ATP, 1 mM MgCl2, 10% glycerol, 10 nM DNA, room temperature 30 min; details: protein: recombinant; label: none
# SaBirA [5] = molecular target: T2, SaBirA; assay: EMSA; holo; biotin, ATP, Mg2+; up to 2 uM; nESI-MS: 200 mM ammonium acetate pH 6.9, 10 uM protein, 5 uM DNA, 4 C >=1 h; EMSA: 50 mM Tris pH 8.0, 50 mM NaCl, 0.1 mM biotin, 1 mM ATP, 1 mM MgCl2, 10% glycerol, 10 nM DNA, room temperature 30 min; details: protein: recombinant; label: none; blunt
# SaBirA [6] = molecular target: T2, SaBirA; assay: native nESI-MS; apo; one monomer on DNA, no dimer; nESI-MS: 200 mM ammonium acetate pH 6.9, 10 uM protein, 5 uM DNA, 4 C >=1 h; EMSA: 50 mM Tris pH 8.0, 50 mM NaCl, 0.1 mM biotin, 1 mM ATP, 1 mM MgCl2, 10% glycerol, 10 nM DNA, room temperature 30 min; details: protein: recombinant; label: none; blunt
# SaBirA-F123G [7] = molecular target: T1, SaBirA-F123G; assay: native nESI-MS; apo; one subunit on DNA; nESI-MS: 200 mM ammonium acetate pH 6.9, 10 uM protein, 5 uM DNA, 4 C >=1 h; EMSA: 50 mM Tris pH 8.0, 50 mM NaCl, 0.1 mM biotin, 1 mM ATP, 1 mM MgCl2, 10% glycerol, 10 nM DNA, room temperature 30 min; details: protein: recombinant; label: none; blunt
# SaBirA [8] = molecular target: T2, SaBirA; assay: native nESI-MS; apo; two subunits on DNA; nESI-MS: 200 mM ammonium acetate pH 6.9, 10 uM protein, 5 uM DNA, 4 C >=1 h; EMSA: 50 mM Tris pH 8.0, 50 mM NaCl, 0.1 mM biotin, 1 mM ATP, 1 mM MgCl2, 10% glycerol, 10 nM DNA, room temperature 30 min; details: protein: recombinant; label: none; blunt
# SaBirA-F123G [9] = molecular target: T1, SaBirA-F123G; assay: EMSA; holo; biotin, ATP, Mg2+; nESI-MS: 200 mM ammonium acetate pH 6.9, 10 uM protein, 5 uM DNA, 4 C >=1 h; EMSA: 50 mM Tris pH 8.0, 50 mM NaCl, 0.1 mM biotin, 1 mM ATP, 1 mM MgCl2, 10% glycerol, 10 nM DNA, room temperature 30 min; details: protein: recombinant, label: none
molecule,measurement,setting,value
"S. aureus BirA (biotin retention protein A, biotin protein ligase), strain Mu50, wild type (enzyme)",stoichiometry N,[1],2
same,stoichiometry N,[2],2
B1,binding result,SaBirA-F123G [3],no binding
same,binding result,SaBirA [4],no binding
B2,binding result,EcBirA,binds
same,binding result,EcBirA-R119W,binds
B3,binding result,SaBirA [5],no binding
B4,binding result,SaBirA [6],binds
same,binding result,SaBirA-F123G [7],binds
B5,binding result,SaBirA [8],binds
same,binding result,SaBirA-F123G [9]; blunt,binds
B6,binding result,SaBirA-F123G [9],binds
